The values that follow are results of earlier work, collected in publication PMC7314768.

For series [1], the target named is Cys145 (UniProt position 3385, FLNGSCGSVGF).
For series [2], the target named is His41 (UniProt position 3281, VYCPRHVICTA).

For the substance “3C-like main protease (3CL Mpro, 3CLpro, nsp5) of SARS coronavirus (Severe acute respiratory syndrome coronavirus (SARS-CoV))”, the pKa in series [1] is 8.0 ± 0.3; in series [2] it was 6.3 ± 0.1.

For orientation: pKa means the negative logarithm of the acid dissociation constant.
